Source: PMC9537531, “DNA-delivered antibody cocktail exhibits improved pharmacokinetics and confers prophylactic protection against SARS-CoV-2” (Nature Communications, 2022)
“And” between values parts separate entries of the source, which are not always exact repeats. Equal entries are not always repeated.

Target: T1, SARS-CoV-2 6P spike ectodomain peplomer (USA-WA1/2020; 6P stabilization) (SARS-CoV-2 USA-WA1/2020 (MN985325), stabilised)
T1 construct: also called stabilized spike trimer; spike peplomer
Experiment: cryo-EM structure
Conditions: both partners purified

Row | Binder | stoichiometry N
1 | 2196 dFab, DNA-encoded Fab obtained from serum-derived DMAb 2196 TM(m3) (Fab, V domains shown, also called dFab 2196; 2196DMAb Fab) VH: QMQLVQSGPEVKKPGTSVKVSCKASGFTFMSSAVQWVRQARGQRLEWIGWIVIGSGNTNYAQKFQERVTITRDMSTSTAYMELSSLRSEDTAVYYCAAPYCSSISCNDGFDIWGQGTMVTVSS VL: not shown | 1 dFab per spike trimer and 2 dFabs per spike trimer and 1 copy per RBD (all three RBDs)
2 | 2130 dFab, DNA-encoded Fab obtained from serum-derived DMAb 2130 TM(m3) (Fab, V domains shown, also called dFab 2130) VH: EVQLVESGGGLVKPGGSLRLSCAASGFTFRDVWMSWVRQAPGKGLEWVGRIKSKIDGGTTDYAAPVKGRFTISRDDSKNTLYLQMNSLKTEDTAVYYCTTAGSYYYDTVGPGLPEGKFDYWGQGTLVTVSS VL: not shown | 3 dFabs per spike trimer
